Measured values taken from patent US20190062427A1.

How the values were obtained:
[1] = biological target: Siglec-9-Fc (R&D Systems, catalog number 1139-SL-050) (human) (UniProt Q9Y336); assay: blocking assay by flow cytometry on U937 cells (sialic acid ligands); same table: S9-Fc alone 156, secondary alone 37.6; panel headed 'Isotype does not block'
[2] = biological target: human Siglec-9 expressed on human cells (human) (UniProt Q9Y336); assay: flow cytometry on human primary dendritic cells, PE-conjugated secondary antibody only (no primary), background control
[3] = biological target: human Siglec-9 expressed on human cells (human) (UniProt Q9Y336); assay: flow cytometry on human primary monocytes, PE-conjugated secondary antibody only (no primary), background control
[4] = biological target: human Siglec-9 expressed on human cells (human) (UniProt Q9Y336); assay: flow cytometry on human primary macrophages, PE-conjugated secondary antibody only (no primary), background control
[5] = biological target: human Siglec-9 expressed on human cells (human) (UniProt Q9Y336); assay: cell-based or functional assay
[6] = biological target: human Siglec-9 expressed on human cells (human) (UniProt Q9Y336); assay: flow cytometry on human primary dendritic cells, isotype control, PE secondary
[7] = biological target: human Siglec-9 expressed on human cells (human) (UniProt Q9Y336); assay: flow cytometry on human primary monocytes, isotype control, PE secondary
[8] = biological target: human Siglec-9 expressed on human cells (human) (UniProt Q9Y336); assay: flow cytometry on human primary macrophages, isotype control, PE secondary

Sequence of human Siglec-9 expressed on human cells (human) (Q9Y336 18-463): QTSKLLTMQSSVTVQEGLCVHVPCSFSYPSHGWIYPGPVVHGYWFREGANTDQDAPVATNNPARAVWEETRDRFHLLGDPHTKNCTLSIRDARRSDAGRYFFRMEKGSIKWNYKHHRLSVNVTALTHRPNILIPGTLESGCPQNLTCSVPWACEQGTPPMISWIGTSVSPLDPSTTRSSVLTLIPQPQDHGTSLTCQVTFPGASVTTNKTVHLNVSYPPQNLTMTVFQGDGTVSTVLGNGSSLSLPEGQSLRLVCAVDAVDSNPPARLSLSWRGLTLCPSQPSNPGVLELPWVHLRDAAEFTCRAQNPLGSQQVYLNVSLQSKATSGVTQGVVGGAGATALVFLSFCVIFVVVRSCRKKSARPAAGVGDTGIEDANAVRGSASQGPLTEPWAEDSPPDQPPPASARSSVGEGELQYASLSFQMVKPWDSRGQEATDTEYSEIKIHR
Sequence of Siglec-9-Fc (R&D Systems, catalog number 1139-SL-050) (human) (Q9Y336 18-348 limits assumed): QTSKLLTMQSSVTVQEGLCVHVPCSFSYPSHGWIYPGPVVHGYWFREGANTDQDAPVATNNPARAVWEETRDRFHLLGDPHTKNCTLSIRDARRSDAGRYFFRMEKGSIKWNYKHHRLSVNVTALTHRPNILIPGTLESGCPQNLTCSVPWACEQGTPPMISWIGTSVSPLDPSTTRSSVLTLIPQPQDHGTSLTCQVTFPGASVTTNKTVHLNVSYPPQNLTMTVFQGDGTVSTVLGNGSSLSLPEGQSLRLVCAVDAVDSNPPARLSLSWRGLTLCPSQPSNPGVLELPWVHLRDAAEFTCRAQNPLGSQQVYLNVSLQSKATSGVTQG

Substance | Mean : PE-A (Siglec-9-Fc bound to U937 cells in the presence of the mAb) [1] | % Positive [2] | MFI [2] | % Positive [3] | MFI [3] | % Positive [4] | MFI [4] | Percent Siglec-9 Surface Expression, DCs (% Siglec-9) [5] | Percent Siglec-9 Surface Expression, Macrophages (% Siglec-9) [5] | Percent Siglec-9 Surface Expression, Microglia (% Siglec-9) [5] | Percent Siglec-9 Surface Expression, Monocytes (% Siglec-9) [5] | Percent Siglec-9 Surface Expression, THP-1 cells (% Siglec-9) [5] | % Positive [6] | MFI [6] | % Positive [7] | MFI [7] | % Positive [8] | MFI [8]
Isotype (antibody) | 203 | – | – | – | – | – | – | – | – | – | – | – | – | – | – | – | – | –
PE-conjugated secondary antibody | – | 7.05% | 90.1 | 2.6% | 105 | 3.58% | 153 | – | – | – | – | – | – | – | – | – | – | –
mIgG2a isotype control antibody | – | – | – | – | – | – | – | 98.6% | 97.8% | 91.2% | 101% | 95.9% | 8.45% | 121 | 3.5% | 127 | 22.6% | 164
mIgG2b isotype control antibody | – | – | – | – | – | – | – | 93.4% | 97.2% | 91.7% | 98.9% | 98% | 26.4% | 319 | 4% | 145 | 12.6% | 180
mIgG1 isotype control antibody | – | – | – | – | – | – | – | 96.5% | 99.3% | 90.3% | 100% | 100% | 12.3% | 132 | 2.6% | 104 | 3.01% | 115
